Laboratory results as given in the supplement of paper PMC10567573.

B1: DLC1 (parent)
chain: HVTHWMGQPFNSDDRNTACHHGLV
B2: FADS1 (parent)
chain: LNFQIEHHLFPTMPRHNYHKVAPL

Variants of: B1
Test: protein stability index of a GFP-peptide fusion (GPS, HEK-293T) (PSI 1-6); higher = more stable
Details: c terminus: a fixed tail appended
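Further: lentivirally expressed fusions sorted by FACS into six bins by GFP to DsRed ratio, PSI derived from sequencing read proportions per bin multiplied by bin number.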

Variant	protein stability index
V24D	2.66
V24F	1.45
V24L	2.35
V24W	2.09
V24K	2.6
V24N	2.05
V24S	2.35
V24M	2.04
V24T	2.39
V24Y	1.69
V24R	2.22
V24I	2.08
V24E	2.5
V24P	2.22
V24Q	2.19
V24H	2.28
V24A	2.31
V24G	1.92
V24C	2.16
H20S	2.25
H20Q	2.46
H20N	2.2

Variant	protein stability index
H20P	2.5
H20R	2.25
H20Y	2.16
H20W	2.46
H20T	2.25
H20V	2.34
G22Q	2.1
G22P	2.05
G22Y	1.6
G22T	2.1
G22C	2.17
G22H	1.99
G22M	1.96
G22S	1.93
G22N	1.99
G22E	2.59
G22L	2.23
G22K	2
G22V	1.89
G22A	2.49
G22I	1.34
G22F	1.57

Variant	protein stability index
G22D	2.29
G22R	2.13
G22W	2.38
L23F	2.02
L23W	1.86
L23E	2.75
L23H	2.46
L23P	2.17
L23A	2.51
L23C	1.99
L23N	2.37
L23I	1.92
L23K	2.27
L23G	2.49
L23T	2.26
L23Y	2.07
L23V	2.39
L23R	2.47
L23Q	2.38
L23D	2.84
L23S	2.24
L23M	2.13

Variant	protein stability index
H21S	2.23
H21K	2.7
H21G	2.37
H21F	1.64
H21Y	1.85
H21N	2.66
H21E	2.51
H21I	1.85
H21W	1.69
H21A	2.38
H21R	2.26
H21C	2.69
H21V	1.9
H21Q	2.44
H21L	1.93
H21D	2.58
H21M	2.21
H21P	1.95
H21T	2.02

Variants of: B2
Test: as above
Details: c terminus: a fixed tail appended

Variant	protein stability index
H7Q	2.45
H7I	3.32
H7T	2.82
H7M	2.96
H7L	3.47
H7A	2.31
H7C	3.38
H7E	1.76
H7P	2.19
H7K	2.75
H7D	1.93
H7S	1.81
H7W	3.85
H7R	1.65
H7N	1.4
H7G	1.55
Q4N	2.22
Q4S	1.3
Q4V	3.42
Q4E	2.25
Q4T	2.74
Q4A	1.44
Q4L	3.1
Q4R	1.6
Q4C	1.86

Variant	protein stability index
Q4P	1.24
Q4D	1.66
Q4I	3.5
Q4H	2.67
Q4F	2.52
Q4G	2.08
Q4Y	3.01
Q4K	1.92
P11V	2.17
P11C	2.3
P11K	2.46
P11T	2.24
P11R	1.81
P11N	2.27
P11E	2.56
P11F	2.77
P11S	2
P11Y	2.96
P11A	2.35
P11L	2.53
P11W	3.17
P11H	3.14
P11D	3.83
P11Q	2.73
P11G	1.9

Variant	protein stability index
P11I	2.19
I5H	1.83
I5A	1.83
I5K	2.06
I5G	2.01
I5T	1.65
I5P	2.14
I5R	2.27
I5L	2.35
I5E	2.1
I5S	2.18
I5D	2.4
I5C	2.33
I5F	2.87
I5W	1.43
I5N	2.52
I5Y	2.57
I5Q	1.83
I5M	1.63
I5V	2.73
P14C	3.64
P14I	2.08
P14N	3.36
P14F	2.39
P14R	1.76

Variant	protein stability index
P14L	1.18
P14S	2.71
P14T	1.9
P14A	2.64
P14D	2.52
P14G	2.43
P14E	2.13
P14M	2.44
P14Q	2.54
P14H	1.9
F3K	1.88
F3H	1.83
F3G	2.42
F3P	1.95
F3D	3.03
F3Q	2.17
F3C	2.22
F3E	2.65
F3N	2.52
F3T	2.4
F3R	1.96
F3S	2.15
F3M	2.31
F3L	1.73
F3V	1.96

Variant	protein stability index
F3Y	1.37
F3A	2.58
F3W	1.92
F10C	2.71
F10W	2
F10M	1.37
F10R	1.87
F10T	1.39
F10Q	1.92
F10V	1.05
F10P	1.24
F10H	3.04
F10E	1.24
F10I	2.97
F10S	1.66
F10D	1.74
F10K	2.14
F10A	2.17
F10G	2.73
F10L	1.55
F10N	2.28
F10Y	2.17
H8K	1.93
H8R	1.74
H8V	1.5

Variant	protein stability index
H8I	3.23
H8G	1.58
H8L	2.44
H8C	2.41
H8M	2.14
H8F	2.4
H8N	2.06
H8A	1.87
H8Y	2.57
H8T	2.26
H8Q	2.35
H8W	2.58
H8S	2.12
H8D	2.14
H8E	3.1
H8P	2.11
N2K	2.28
N2V	2.5
N2T	2.76
N2S	1.88
N2C	1.98
N2P	1.65
N2H	2.37
N2Y	1.77
N2M	1.53

Variant	protein stability index
N2L	3.82
N2W	3.67
N2D	2.91
N2Q	1.91
N2A	2.02
N2R	2.09
N2G	1.24
N2I	3.16
N2E	2.42
L9Y	2.1
L9H	1.8
L9P	1.5
L9D	2.04
L9A	1.39
L9W	3.23
L9V	2.37
L9K	1.36
L9N	1.57
L9Q	1.34
L9I	2.01
L9S	2.71
L9C	1.72
L9M	1.95
L9T	1.42
L9G	2.83

Variant	protein stability index
L9F	3.13
L9R	1.87
L9E	1.23
T12N	1.77
T12I	2.5
T12K	1.92
T12F	2.79
T12S	2.65
T12L	2.08
T12P	3.45
T12E	2.42
T12D	1.98
T12W	2.45
T12G	1.47
T12Q	1.99
T12A	2.56
T12M	1.73
T12V	2.29
T12H	1.46
T12C	2.74
T12Y	2.5
L1T	2.03
L1N	1.95
L1C	2.11
L1A	1.91

Variant	protein stability index
L1V	2.18
L1I	2.2
L1Y	1.93
L1P	2.26
L1H	2.1
L1Q	2.31
L1E	2.29
L1G	2.63
L1W	3.02
L1F	3.4
L1M	1.63
L1D	1.31
L1K	2.03
L1S	1.84
L1R	2.48
M13W	2.66
M13V	2.6
M13F	1.97
M13Q	1.15
M13S	2.59
M13H	2.04
M13E	1.35
M13G	2.13
M13L	1.62
M13D	1.82

Variant	protein stability index
M13A	2.02
M13R	1.4
M13K	1.75
M13N	1.91
M13Y	2.83
M13C	1.75
M13I	2.35
E6A	2.54
E6W	2.57
E6G	1.77
E6P	2.11
E6S	1.8
E6F	3.4
E6R	2.07
E6M	2.24
E6K	2.21
E6D	2.54
E6H	2.31
E6L	2.27
E6C	2.65
E6V	3.6
E6Y	2.06
E6Q	2.38
E6N	1.19
